B1: r11_951_TrROS_Hall (parent)
chain: KKKYVIKVYFEDTGKEVEIEAESKEEALEAAKRLAEELGLKIKKVEIYP

Consider 53 variants from the MegaScale stability set (Tsuboyama et al. 2023).

The variants in the series derive from B1. The series can be described thus: folding stability dG (cDNA display proteolysis); higher = more stable. The following applies: PBS, room temperature.
Take KKKYVIKVYFEDTGKEVEIEAESKEEALEAAVRLAEELGLKIKKVEIYP [K32V]: the “folding stability dG” value is 4.35 kcal/mol.

Turning to KKKYVIKVYFEDTGKEVEIEAESKEEALEAAWRLAEELGLKIKKVEIYP [K32W], the “folding stability dG” value turned out to be 4.78 kcal/mol. On to KKKYVIKVYFEDTGKEVEIEAESKEEALEAAHRLAEELGLKIKKVEIYP [K32H], for which the “folding stability dG” value turned out to be 4.55 kcal/mol. Consider KKKYVIKVYFEDTGKEVEIEAESKEEALEAALRLAEELGLKIKKVEIYP [K32L], for which the “folding stability dG” value came to 4.55 kcal/mol. On to KKKYVIKVYFEDTGKEVEIEAESKEEALEAAQRLAEELGLKIKKVEIYP [K32Q], for which the “folding stability dG” value came to 4.38 kcal/mol. Regarding KKKYVIKVYFEDTGKEVEIEAESKEEALEAAERLAEELGLKIKKVEIYP [K32E], the “folding stability dG” value is 4.28 kcal/mol.

KKKYVIKVYFEDTGKEVEIEAESKEEALEAANRLAEELGLKIKKVEIYP [K32N]: the “folding stability dG” value stood at 4.51 kcal/mol. Consider KKKYVIKVYFEDTGKEVEIEAESKEEALEAAARLAEELGLKIKKVEIYP [K32A], for which the “folding stability dG” value is 4.44 kcal/mol. Consider KKKYVIKVYFEDTGKEVEIEAESKEEALEAAIRLAEELGLKIKKVEIYP [K32I], for which the “folding stability dG” value came to 4.34 kcal/mol. For KKKYVIKVYFEDTGKEVEIEAESKEEALEAARRLAEELGLKIKKVEIYP [K32R], the “folding stability dG” value is 4.26 kcal/mol. KKKYVIKVYFEDTGKEVEIEAESKEEALEAAYRLAEELGLKIKKVEIYP [K32Y]: the “folding stability dG” value was 4.9 kcal/mol. Regarding KKKYVIKVYFEDTGKEVEIEAESKEEALEAAMRLAEELGLKIKKVEIYP [K32M], the “folding stability dG” value worked out at 4.68 kcal/mol. For KKKYVIKVYFEDTGKEVEIEAESKEEALEAAFRLAEELGLKIKKVEIYP [K32F], the “folding stability dG” value worked out at 4.98 kcal/mol. Regarding KKKYVIKVYFEDTGKEVEIEAESKEEALEAASRLAEELGLKIKKVEIYP [K32S], the “folding stability dG” value was 4.42 kcal/mol. KKKYVIKVYFEDTGKEVEIEAESKEEALEAAGRLAEELGLKIKKVEIYP [K32G]: the “folding stability dG” value stood at 4.13 kcal/mol.

As for KKKYVIKVYFEDTGKEVEIEAESKEEALEAAPRLAEELGLKIKKVEIYP [K32P], the “folding stability dG” value was determined as 3.09 kcal/mol. On to KKKYVIKVYFEDTGKEVEIEAESKEEALEAACRLAEELGLKIKKVEIYP [K32C], for which the “folding stability dG” value is 4.22 kcal/mol. With KKKYVIKVYFEDTGKEVEIEAESKEEALEAADRLAEELGLKIKKVEIYP [K32D] the figure was 4.21 kcal/mol.

Turning to KKKYVIKVYFEDTGKEVEIEAESKEEALEAATRLAEELGLKIKKVEIYP [K32T], the “folding stability dG” value amounted to 4.41 kcal/mol. As to KKKYVIKVYFEDTGKEVEIEAESKEEAVEAAKRLAEELGLKIKKVEIYP [L28V], the “folding stability dG” value amounted to 4.51 kcal/mol.

For the variant KKKYVIKVYFEDTGKEVEIEAESKEEATEAAKRLAEELGLKIKKVEIYP [L28T], the “folding stability dG” value was 4.16 kcal/mol. For KKKYVIKVYFEDTGKEVEIEAESKEEAKEAAKRLAEELGLKIKKVEIYP [L28K], the “folding stability dG” value came to 4.28 kcal/mol. On to KKKYVIKVYFEDTGKEVEIEAESKEEAMEAAKRLAEELGLKIKKVEIYP [L28M], for which the “folding stability dG” value worked out at 4.46 kcal/mol. For the variant KKKYVIKVYFEDTGKEVEIEAESKEEAREAAKRLAEELGLKIKKVEIYP [L28R], the “folding stability dG” value stood at 4.23 kcal/mol.

With KKKYVIKVYFEDTGKEVEIEAESKEEAFEAAKRLAEELGLKIKKVEIYP [L28F], the “folding stability dG” value worked out at 4.31 kcal/mol. For KKKYVIKVYFEDTGKEVEIEAESKEEAQEAAKRLAEELGLKIKKVEIYP [L28Q], the “folding stability dG” value was found to be 4.31 kcal/mol. Turning to KKKYVIKVYFEDTGKEVEIEAESKEEAGEAAKRLAEELGLKIKKVEIYP [L28G], the “folding stability dG” value is 4.17 kcal/mol.

Turning to KKKYVIKVYFEDTGKEVEIEAESKEEANEAAKRLAEELGLKIKKVEIYP [L28N], the “folding stability dG” value amounted to 4.33 kcal/mol. With KKKYVIKVYFEDTGKEVEIEAESKEEAHEAAKRLAEELGLKIKKVEIYP [L28H] the figure was 4.44 kcal/mol; with KKKYVIKVYFEDTGKEVEIEAESKEEAEEAAKRLAEELGLKIKKVEIYP [L28E], 4.28 kcal/mol; with KKKYVIKVYFEDTGKEVEIEAESKEEAPEAAKRLAEELGLKIKKVEIYP [L28P], 3.39 kcal/mol. For KKKYVIKVYFEDTGKEVEIEAESKEEAIEAAKRLAEELGLKIKKVEIYP [L28I], the “folding stability dG” value was 4.42 kcal/mol. With KKKYVIKVYFEDTGKEVEIEAESKEEAWEAAKRLAEELGLKIKKVEIYP [L28W] the figure was 4.64 kcal/mol; with KKKYVIKVYFEDTGKEVEIEAESKEEAYEAAKRLAEELGLKIKKVEIYP [L28Y], 4.57 kcal/mol. In the case of KKKYVIKVYFEDTGKEVEIEAESKEEASEAAKRLAEELGLKIKKVEIYP [L28S], the “folding stability dG” value was found to be 4.2 kcal/mol. With KKKYVIKVYFEDTGKEVEIEAESKEEALEAVKRLAEELGLKIKKVEIYP [A31V], the “folding stability dG” value came out at 4.45 kcal/mol.

KKKYVIKVYFEDTGKEVEIEAESKEEALEAEKRLAEELGLKIKKVEIYP [A31E]: the “folding stability dG” value was 2.11 kcal/mol.

With KKKYVIKVYFEDTGKEVEIEAESKEEALEARKRLAEELGLKIKKVEIYP [A31R], the “folding stability dG” value stood at 2.47 kcal/mol. Take KKKYVIKVYFEDTGKEVEIEAESKEEALEAYKRLAEELGLKIKKVEIYP [A31Y]: the “folding stability dG” value worked out at 4.33 kcal/mol. Regarding KKKYVIKVYFEDTGKEVEIEAESKEEALEAHKRLAEELGLKIKKVEIYP [A31H], the “folding stability dG” value came to 2.62 kcal/mol.

On to KKKYVIKVYFEDTGKEVEIEAESKEEALEANKRLAEELGLKIKKVEIYP [A31N], for which the “folding stability dG” value is 1.73 kcal/mol. With KKKYVIKVYFEDTGKEVEIEAESKEEALEAKKRLAEELGLKIKKVEIYP [A31K] the figure was 2.42 kcal/mol; with KKKYVIKVYFEDTGKEVEIEAESKEEALEADKRLAEELGLKIKKVEIYP [A31D], 0.894 kcal/mol; with KKKYVIKVYFEDTGKEVEIEAESKEEALEAGKRLAEELGLKIKKVEIYP [A31G], 4.15 kcal/mol. Regarding KKKYVIKVYFEDTGKEVEIEAESKEEALEACKRLAEELGLKIKKVEIYP [A31C], the “folding stability dG” value is 4.18 kcal/mol. For KKKYVIKVYFEDTGKEVEIEAESKEEALEASKRLAEELGLKIKKVEIYP [A31S] the value was 4.2 kcal/mol; for KKKYVIKVYFEDTGKEVEIEAESKEEALEAQKRLAEELGLKIKKVEIYP [A31Q], 2.81 kcal/mol. As to KKKYVIKVYFEDTGKEVEIEAESKEEALEAWKRLAEELGLKIKKVEIYP [A31W], the “folding stability dG” value was 4.25 kcal/mol.

As for KKKYVIKVYFEDTGKEVEIEAESKEEALEAFKRLAEELGLKIKKVEIYP [A31F], the “folding stability dG” value is 4.48 kcal/mol. Turning to KKKYVIKVYFEDTGKEVEIEAESKEEALEAIKRLAEELGLKIKKVEIYP [A31I], the “folding stability dG” value amounted to 4.2 kcal/mol. KKKYVIKVYFEDTGKEVEIEAESKEEALEATKRLAEELGLKIKKVEIYP [A31T]: the “folding stability dG” value turned out to be 4.01 kcal/mol.

Turning to KKKYVIKVYFEDTGKEVEIEAESKEEALEALKRLAEELGLKIKKVEIYP [A31L], the “folding stability dG” value turned out to be 4.21 kcal/mol.

Turning to KKKYVIKVYFEDTGKEVEIEAESKEEALEAPKRLAEELGLKIKKVEIYP [A31P], the “folding stability dG” value is 3.02 kcal/mol.
